Columns and labels:
Assay in all cases: cell-based or functional assay
[1] = biological target: T1, IL-18 receptor (IL-18Rα and IL-18Rβ) (UniProt Q13478 19-541; O95256 20-599, limits assumed)
T1 sequence (looked up) 1: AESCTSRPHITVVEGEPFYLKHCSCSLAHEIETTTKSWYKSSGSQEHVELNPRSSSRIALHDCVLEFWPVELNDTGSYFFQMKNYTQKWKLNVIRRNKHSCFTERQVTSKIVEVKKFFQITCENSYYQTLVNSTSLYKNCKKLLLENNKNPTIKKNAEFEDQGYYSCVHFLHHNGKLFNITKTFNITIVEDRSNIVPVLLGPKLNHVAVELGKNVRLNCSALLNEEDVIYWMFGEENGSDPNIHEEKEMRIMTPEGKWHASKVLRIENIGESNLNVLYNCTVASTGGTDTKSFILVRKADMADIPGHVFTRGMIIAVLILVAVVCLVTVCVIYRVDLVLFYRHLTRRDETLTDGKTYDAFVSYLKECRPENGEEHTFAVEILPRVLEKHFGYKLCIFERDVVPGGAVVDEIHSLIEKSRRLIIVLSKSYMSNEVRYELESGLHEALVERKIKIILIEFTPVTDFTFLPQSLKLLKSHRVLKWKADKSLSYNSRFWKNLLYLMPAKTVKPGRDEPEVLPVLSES
T1 sequence (looked up) 2: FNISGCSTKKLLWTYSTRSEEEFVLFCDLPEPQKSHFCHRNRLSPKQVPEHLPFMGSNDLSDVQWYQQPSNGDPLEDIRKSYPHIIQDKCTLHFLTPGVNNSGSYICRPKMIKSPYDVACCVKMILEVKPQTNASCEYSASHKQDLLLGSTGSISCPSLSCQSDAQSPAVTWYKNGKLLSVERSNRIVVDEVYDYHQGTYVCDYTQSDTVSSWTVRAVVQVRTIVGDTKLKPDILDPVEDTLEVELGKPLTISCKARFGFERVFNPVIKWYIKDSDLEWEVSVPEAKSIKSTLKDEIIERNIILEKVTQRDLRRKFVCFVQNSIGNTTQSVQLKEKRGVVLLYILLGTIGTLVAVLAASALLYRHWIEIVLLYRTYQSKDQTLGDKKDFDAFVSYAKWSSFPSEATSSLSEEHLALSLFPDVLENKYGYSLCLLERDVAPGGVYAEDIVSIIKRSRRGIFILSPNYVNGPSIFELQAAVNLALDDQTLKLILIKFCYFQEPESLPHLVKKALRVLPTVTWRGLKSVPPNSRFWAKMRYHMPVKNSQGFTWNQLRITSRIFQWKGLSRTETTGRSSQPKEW

[2] = biological target: T2, IL-18 receptors on HEK-Blue IL-18 reporter cells (InvivoGen) (UniProt Q13478 19-541; O95256 20-599)
T2 sequence (looked up) 1: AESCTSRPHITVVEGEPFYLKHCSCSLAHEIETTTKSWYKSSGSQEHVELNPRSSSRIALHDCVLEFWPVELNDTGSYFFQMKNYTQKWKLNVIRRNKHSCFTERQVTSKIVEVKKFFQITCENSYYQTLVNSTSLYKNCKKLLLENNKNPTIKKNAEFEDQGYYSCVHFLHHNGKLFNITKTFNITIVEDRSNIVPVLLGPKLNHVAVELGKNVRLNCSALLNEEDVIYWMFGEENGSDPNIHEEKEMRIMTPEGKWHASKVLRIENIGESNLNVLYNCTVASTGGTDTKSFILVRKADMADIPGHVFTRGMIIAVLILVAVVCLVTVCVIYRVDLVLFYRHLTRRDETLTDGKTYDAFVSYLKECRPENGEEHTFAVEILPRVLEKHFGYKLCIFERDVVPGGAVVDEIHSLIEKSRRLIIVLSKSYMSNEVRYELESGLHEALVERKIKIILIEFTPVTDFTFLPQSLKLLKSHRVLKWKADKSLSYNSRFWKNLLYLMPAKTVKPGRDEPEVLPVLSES
T2 sequence (looked up) 2: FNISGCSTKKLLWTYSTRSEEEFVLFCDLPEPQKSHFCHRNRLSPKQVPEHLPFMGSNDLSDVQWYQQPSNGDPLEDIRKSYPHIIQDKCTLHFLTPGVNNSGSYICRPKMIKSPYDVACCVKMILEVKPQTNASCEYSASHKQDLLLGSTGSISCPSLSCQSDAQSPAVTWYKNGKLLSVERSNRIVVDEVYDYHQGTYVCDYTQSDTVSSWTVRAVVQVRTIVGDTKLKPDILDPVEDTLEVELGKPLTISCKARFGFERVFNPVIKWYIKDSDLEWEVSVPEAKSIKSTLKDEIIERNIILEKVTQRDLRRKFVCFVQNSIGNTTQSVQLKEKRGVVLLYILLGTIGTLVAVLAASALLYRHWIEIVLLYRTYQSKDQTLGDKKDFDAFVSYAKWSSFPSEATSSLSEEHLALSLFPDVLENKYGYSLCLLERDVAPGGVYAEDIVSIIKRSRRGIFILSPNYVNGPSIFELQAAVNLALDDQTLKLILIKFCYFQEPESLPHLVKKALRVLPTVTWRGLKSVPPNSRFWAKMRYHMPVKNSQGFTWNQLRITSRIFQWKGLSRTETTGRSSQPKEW

[3] = biological target: T3, human IL-18 binding protein (IL-18BP) (human, UniProt O95998 31-194)
T3 sequence (looked up): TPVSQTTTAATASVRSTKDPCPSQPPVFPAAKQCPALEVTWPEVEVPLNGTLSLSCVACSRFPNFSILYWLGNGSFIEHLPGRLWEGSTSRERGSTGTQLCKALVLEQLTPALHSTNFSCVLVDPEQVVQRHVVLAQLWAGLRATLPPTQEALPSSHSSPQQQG

| Binder | EC50 (pM), PBMC IFN gamma assay, average [1] [pM] | EC50 (pM), PBMC IFN gamma assay, run 1 [1] [pM] | EC50 (pM), PBMC IFN gamma assay, run 2 [1] [pM] | EC50 (pM), PBMC IFN gamma assay, run 3 [1] [pM] | PBMC IFN gamma EC50 relative to WT-IL18, average [1] | PBMC IFN gamma EC50 relative to WT-IL18, run 1 [1] | PBMC IFN gamma EC50 relative to WT-IL18, run 2 [1] | PBMC IFN gamma EC50 relative to WT-IL18, run 3 [1] | HEK-Blue EC50 pM, NO BP (50 nM BP run) [2] [pM] | HEK-Blue EC50 pM, NO BP (300 nM BP run) [2] [pM] | Fold Change (BP/NO BP), 50 nM BP [3] [fold] | Fold Change (BP/NO BP), 300 nM BP [3] [fold] | HEK-Blue EC50 pM, +50 nM BP [3] [pM] | HEK-blue EC50 (pM) + 300 nM BP [3] [pM] |
| --- | --- | --- | --- | --- | --- | --- | --- | --- | --- | --- | --- | --- | --- | --- |
| hIL18 (G3V, K53A, M60K) - KiH (Fc fusion) YFVKLESKLSVIRNLNDQVLFIDQGNRPLFEDMTDSDMRDNAPRTIFIISMYADSQPRGKAVTISVKSEKISTLSSENKIISFKEMNPPDNIKDTKSDIIFFQRSVPGHDNKMQFESSSYEGYFLASEKERDLFKLILKKEDELGDRSIMFTVQNED | 60.6 | 47.3 | 75 | 59.4 | 0.43 | 0.2 | 0.71 | 0.37 |  |  |  |  |  |  |
| hIL18 (G3T, E6K, K53S, M60K) - KiH (Fc fusion) YFTKLKSKLSVIRNLNDQVLFIDQGNRPLFEDMTDSDMRDNAPRTIFIISMYSDSQPRGKAVTISVKSEKISTLSSENKIISFKEMNPPDNIKDTKSDIIFFQRSVPGHDNKMQFESSSYEGYFLASEKERDLFKLILKKEDELGDRSIMFTVQNED | 84.4 | 90.3 | 121 | 41.6 | 0.6 | 0.37 | 1.15 | 0.26 |  |  |  |  |  |  |
| hIL18 (G3V, K53S, M60K) - KiH (Fc fusion) YFVKLESKLSVIRNLNDQVLFIDQGNRPLFEDMTDSDMRDNAPRTIFIISMYSDSQPRGKAVTISVKSEKISTLSSENKIISFKEMNPPDNIKDTKSDIIFFQRSVPGHDNKMQFESSSYEGYFLASEKERDLFKLILKKEDELGDRSIMFTVQNED | 576 | 589 | 535 | 603 | 3.75 | 2.45 | 5.08 | 3.73 |  |  |  |  |  |  |
| hIL18 (G3T, K53S, M60K) - KiH (Fc fusion) YFTKLESKLSVIRNLNDQVLFIDQGNRPLFEDMTDSDMRDNAPRTIFIISMYSDSQPRGKAVTISVKSEKISTLSSENKIISFKEMNPPDNIKDTKSDIIFFQRSVPGHDNKMQFESSSYEGYFLASEKERDLFKLILKKEDELGDRSIMFTVQNED | 906 | 810 | 1120 | 784 | 6.3 | 3.36 | 10.7 | 4.85 |  |  |  |  |  |  |
| IL-18 variant M60K, D157E (ligand) YFGKLESKLSVIRNLNDQVLFIDQGNRPLFEDMTDSDMRDNAPRTIFIISMYKDSQPRGKAVTISVKSEKISTLSSENKIISFKEMNPPDNIKDTKSDIIFFQRSVPGHDNKMQFESSSYEGYFLASEKERDLFKLILKKEDELGDRSIMFTVQNEE |  |  |  |  |  |  |  |  | 1.3 | 1.67 | 1.25 | 9.04 | 1.62 | 15.1 |
| IL-18 variant M60K (ligand) YFGKLESKLSVIRNLNDQVLFIDQGNRPLFEDMTDSDMRDNAPRTIFIISMYKDSQPRGKAVTISVKSEKISTLSSENKIISFKEMNPPDNIKDTKSDIIFFQRSVPGHDNKMQFESSSYEGYFLASEKERDLFKLILKKEDELGDRSIMFTVQNED |  |  |  |  |  |  |  |  | 2.9 | 3.96 | 1.64 | 9.67 | 4.77 | 38.3 |

From patent publication US20240182536A1 (MURAL ONCOLOGY, published 2024)
